# The DeepSol protein solubility set
# Experiment: soluble on expression in E. coli; label from the status in PepcDB or PDB records
row,Sequence,soluble on expression in E. coli
1,MALSGIYKLDDGKPYLNNCFPARNLLRVPEEGQGHWLVVQKGNLKKKPKGLVGAQAERRESLKATSFEFKGKKESRRENQVDLPGHILDQAFLLKHHCVRKPSDLCTINAKENDFKHFHSVIYINASENLLPLEAFHTFPALKELDLAFNGIKTIYVKYGDFKLLEFLDLSFNSLTVEAICDLGILPHLRVLLLTGNGLTSLPPNLAVAEQEASVTSLTSKRYILRFPALETLMLDDNRLSNPSCFASLAGLRRLKKLSLDENRIIRIPYLQQVQLYDESVDWNGGRGSPHKEPQFMLQSKPRMLEDSDEQLDYTVLPMKKDVDRTGVPPLLKSFLQERLGIHLIRRKIVKPKHHVLMSRKESWKVKSEIPKVPKQPLVLHHPRMRTTKSPSKDMLEPEAELAEDLPTTKSTSVESEMPTENLEGHSPSCRTFVPLPPICSNSTVHSEETLSHLSDTTVRLSPERPSDEDSKSTESIFLTQVSELPSSVIHKDDLELKEKDQKKPPTAPREVKGTRRKLPTAFLPSKYHGYEELLTAKPDPAFIEPKGIQKNAQALQQMLKHPLLCHSSKPKLDTLQKPYVHKEKRVLSCTSGQNGGW,not soluble
2,MVKFIESELILLKKEVDEMWTLVYNQLDRAGEAVMTLDKELAQQVMVRERRVNAFELKIDSDIEDIIALYNPVAIDLRFVLAMLKINTNLERLGDFAEGIARFVIRCKEPVLDADLLARLRLGEMQAEVLSMLELAKRALNEENIEMATAVFGKDNLLDDINAEATGILADYIREHPETAHTCVDLVGVFRKLERSGDHITNIAEEIVFFIDAKVLKHSGKVDENYPKS,not soluble
3,MAHHHHHHMQAITASTPSQQYSVGAGIEKPLGVTTSADWMTMYERKPHGNSTLFELEAMVAKRMEFLAWVDQQINSPQAKNFDSVLDAIIARLPEERRSSAATDGSRVKMISLGYDETAAGGCSDRRSSSRGSTGSAAGANQAASIVFAPEEDVTSHLLCRFAFCMSERWRDWLVRTERVLLTARIKMEMAKRPFTFLVDLMKRNGLPCAPLTDKQLADPMLQEYLEYRRVKAESARESEGRVENYYAVPLSLATRLIKKRYVLCRAGQAILFRDQVQEVFLTVFCARLNRGLHNAYLARVKQQALEEETAKSTVMAMLDAFLQQFISDPVDTLQEGVAGSVRARDVQRLAQAHFPPCMRAIDWHLRREGHLKHHGRFMYGLFLKSIGLSLEDSLELFATLMKVKGGGSVEAFAKTAYGYNVRHNYGMEGKKMSYSSASCATILGLPPVVDQHDCHGCPFRFRDEGALRTMLGKETENPKGCDYPSVRPTPGDIEDIVSDSKAQHYTRACYKYFMATHPGARRDTLFRSPYEYYSVSLEFETPSDGTESARPSAVPGKRTSVVLNEDVLRFRTSP,not soluble
4,MNTQNYTYSTTGYQPSQPSGGQQSYNETRQYSSNATSNYPSQTQQYQQQQHQYQSDHSNAQRLLNSGYNTNQVDYVLGHKDKYNEGPHYQPPIINSSATAANNSSSSTHHYNSSSQAIPLGGPNQGHSSSSYTTETRVTGGGTGAPVSNNYSNQNYSSSAYNSQSSQHQTKSIPVQNYQISFPPLSVSTPAFGTSFFENSQKSFQESSEKFHRDLASPLSRTIPVQSAGHFSEVSKYFNSEEEENYQVSQPAIPLPSADQVYEVSSNYNKSYSSQTTTQHQPQPVAANNNYSTSYHTERSSTTTAQQPQTIALPPPQNNSSHTETHSSTGPIMMHSPGGHSMKSTEFSSSRHHKQETTTTTTTTPQPPVFQTTTYPTTKTTSYNYSSSTIPSQPAKPSFNQESYTTHTERNNSSQGFPQQRLQPSGGYSYENYSSSRKEENRREETSRPVSQLSQYSESRNYKRNYEEKTETTTVPSLAPATNVTYKDLSNAQCVDDVFNKKTEMNESLPVGSVFNTHNNTEGGYRDANGHDVSYKRETQTSADPGRETALLKEEEKRVVETPLEPGVISRHVTTKYYKKKTVTDTTTTTA,not soluble
5,MMDLHTHTVYSDGIGLIRDNVAWAEKRGLKIVGISDHIHFFTPSRFSAYINEINVIKEESEIVVLAGIEANILENGPDITDEFRKKLDYAIASVHEWFGRNGTHEYINYVKKAIMDDNVDIIGHFGNSFPWIGYPTREEIDEILDLAEAYGKAFEISARYKVPDLEFIRECVKRGIKLSLATDAHRPEDVGKVSWSLKMLEKAGGTKEDLIFSEYL,soluble
6,MNASSRTKPAIDLNKVPPIDHHRTAVTFNCLIMKMTEMLNNFGNKMEDILEKAEQSLDTADRKLRLMESKLAGMSLEDKSTTATPSSAPEIDEIHESNPSSSQIVEETVEEKPEEHTTTVLIKDDPAYSKYFKMLKLGVLEAGVIQKMKSEGVDPSILKRGDEPSRPQAQTSRNYESSGESTASFSDSD,not soluble
7,MSTENDVSEENNSELDDVEDAKQDDRRRSTTVIMTMNVTTVPATESEGVRRNGSVRRRLSKQNATIEEPISLLSISDSPSENSDTTVPCIEEHPEEGKEEEKPAESSDVSKLRPPGLAQNKLWSTSKSLSRESTGTEYSDRSGIDLRNFVDRTLHKSEEDRKQLLEFEKQLKELILDDSTQSKRFELPSSYHRMLLHRCAAWFGLDHNVTNKQTDIVVNKSEKTKIPDDNFTDYIRHDNYVEDRLKRQNTCGSRKELHHMESFGDHSTSQYGSQASLNHDLLMMRRAQSFDVAAVTGPSVIQPQSPHHVRGLPMRQLSLNCPQQSMVTAPMSGPQGHQWAPQRSFDCSNNSYLCTGKHPMMRKAESFGGMANGISHGCYEQSVPVVCGTPPSVMVHHHHHHAHIQQPPTSNYTGYQVFEEMSMPSSNYQEPGMCSPGGTYYEYVPQPVVQPQQYARPIRYMPQDYRRPQGVQYMYGPPPPQQYMQYQPMVHPEVEVIVDPVQTQPFPQVSHFVLPDQQQGYSSSHQAETANSFIKASIDGGYGSMNQDVENAEKVEEV,not soluble
8,MGSDKIHHHHHHMARKKRNPDAEKLAESILNAYQPESVDDMQDALKDVFGPLFEKMLQGELNNHLGYDAHSKEPKEHDNRRNGYGTKTLKTSFGEVAIDVPRDREASFEPELIPKRKRDVSDIEGKVLSMYARGMSQRDIAATVEAIYGFDISHEMISDITDAVLPELEEWQARPLAKCYAFLFVDCMYVTLRENYEAKEYAVYTILGYDLKGNKEILGLWLNQTESKNRWMQVFDELKARGVEDVFFISMDGVSGLEEGAKAIFPSVIVQRCIVHLVRNALRYIPSKDYKEVCRDMKKFYGASSLNAAHAAFGSFQNRWSHYSGAVDVWKRNFAHVEQLFDYGSAIRKIMYTTNAVESVHSSFRKVTKKGAFSNENALLKLLYLRTKELHAKWSGGRIQNWAMVLKQLMINETFSSRMKSMRFTFRNNGRFIQLCVRSKFI,not soluble
9,QGEIRVGPSHQAKLPDLQPFPSPDGDTVTQHEELVWMPGVNDCDLLMYLRAARSMAAFAGMCDGGSTEDGCVAASRDDTTLNALNTLHESGYDAGKALQRLVKKPVPKLIEKCWTEDEVKRFVKGLRQYGKNFFRIRKELLPNKETGELITFYYYWKKT,not soluble
10,MSNTHEVRPGQSIELLKALHILTRDGKMNQDSRRKLKQVYHLYQFIEPLLQNARNARGAVTLVDHGAGKSYLGFILYDLFFKDRRDASHIYGIETRAELVQSATELAARLGFGGMSFLNLSVADSIASEQLPPRVDIVTALHACNTATDDAIRFALAKQAQSIVLVPCCQAEVAAVLRKNKARALADPMAELWRHPLHTREFGSQLTNVLRCLQLEAHGYQLSVTELVGWEHSMKNELIIARHQPGRPRREPARRLREMLERIGLQELSERFQVPAQP,not soluble
11,MSLYELTEDFKLRKITKYELDGIDEREDLLVIPPSSKAGPCGNACLFCYLLQNPPEMIYKVPRHDTLNDPDLENRIRYARKHYDLWIRVTDTSGNIKFDENRIKSLYDAGLDEIQISVHTTKKDVRARLMRNRQAGKLIDLLPLVAKHFRTIADIILTPGFNVEDIGEIIEDLDSMGVHEVRLFPVGVTRYNKFGVRPLTREELSYVKGIALEKDKELAIKVVIPPIFLALLGEFTTGLEPFDIEPDFPTYIFTGELAYQEMKRLFPRVNVIMVKNEFFGGNIGSAGLLTGRDILREVEKLPEVDLGLIILPELMFYGDMTLDGWRRQELFSKILIEKGYIVETALEPTEIPRVIEKVTLEGHHHHHH,soluble
12,MTEKKIDFKKEEKKFYAPKRKPERIFVPEMNFLMVDGKGDPDGEEYQKAVQSLYAIAYTIKMSKMGETRLDGYSDFVVPPLEGFWWSEGKFDLKDRDAWLWTSILRQPDFVTEEVLEWAKEVARKKKPDV,not soluble
13,AALVSISVSPTNSTVAKGLQENFKATGIFTDNSNSDITDQVTWDSSNTDILSISNASDSHGLASTLNQGNVKVTASIGGIQGSTDFKVTQAALTSIEVSPTRTSIAKGLTQKFTAIGIFTDNSKKDITDQVTWNSSSAIVSVSNLDNNKGLGKTNSVGNTTITATLGKVSGNTWFTVVPAVLTSIQINPVNPSLAKGLTQKFTATGIYSDNSNKDITSAVTWFSSDSSIATISNAQKNQGNAYGAATGATDIKATFGKVSSPVSTLSVTAAKLVEIQITPAAASKAKGLTERFKATGIFTDNSNSDITNQVTWNSSNTDIAEIKNTSGSKGITNTLTPGSSEISAALGSIKSSKVILKV,not soluble
14,SVFDIYKIGVGPSSSHTVGPMKAGKEFIDDLRAMGKLRDITKITVDVYGSLSLTGKGHHTDIAIIMGLAGNSPEKVDIDSIPGFIARVEETERLPVGMHCHTVSFPREGGMNFHKTNLELHENGMQIHAWIDDEKVYSKTYYSIGGGFIVDEENFGK,soluble
15,MSDNALTSSRRFGGIARLYGDSALAHFSQAHVCVVGVGGVGSWAVEALARTGIGRLTLIDLDNVAESNVNRQLHALTGDFGKAKVTALRERITQINPQCEVFEIEDFVTEDNLPEYFGKGFDFVIDAIDQVRVKAAMAAYFVERKQPFVLSGGAGGQKNPALIQTADLSRVTHDPLLANLRYTLRKRYGFSRDTKANMRVPCVYSTENIVPPQSREACSADAAPQGLSCAGYGASMLVTASFGLYCAQAAVEHIADKKLEHHHHHH,soluble
16,MAIKNAFYAQSGGVTAVINASACGVIQTARKHPDQIGKVYAGRNGIIGALKEELIDTSLESDDAIQALIHTPGGAFGSCRYKLKNISENQREYERLIEVFRAHDIGYFFYNGGGDSQDTAYKVSQLADRMGYPITCIGVPKTVDNDLPFTDCCPGFGSVAKYIATSTLEASLDIKSMCETSTKVFILEVMGRHAGWIAAAGGLAGQSEGEPPHVILFPEIPFNREKFLERVDQCVRDYGYCVVVASEGAQYEDGRFVADAGAKDAFGHTQLGGVAPALANMVKQALGHKYHWAVADYLQRAARHIASATDVEQAYAVGKAAVEMALAGKQALMPTIVRDQAKPYRWSIGEANLSEVANQEKKMPIHYITDNGFGITQDCRDYLQPLIAGESFPPFDDGLPRVAKLKNQLVEKKLRTEFELLEHHHHHH,not soluble
17,SLSEVEIEEVRLNPDEPQYTMDGLDGRRFDEQGYLKEHLSSKGAKQFPESSDIHFDSPHLVFFQEGRLLYEVGSDEAVYHTENKQVLFKNNVVLTKTADGKRQAGKVEAEKLHVDTESQYAQTDTPVSFQYGASHGQAGGMTYDHKTGMLNFSSKVKATIYDTKDM,not soluble
18,MGSDKIHHHHHHMAGDIIVRNKFCDISKVRFRKWDEIDVIFWKFGKSNPERKSGGYYLNAYKDAYIQYNKERIIKYANQAGILPELLGGVAWIESGGMPEEYKFQVFEIKRFLKLKSSPENKTSFGSVAMQIQVAARTLGLNPDILTTRDQLELATCLMEDDFNLWIVAQHLRDMILYDYPSVAALYLTDEQYMMAGIRYNRGIQRKLSEFIRFIDAKPERGSAEFDYISYGVRLLQIRNHIRKLLELNT,not soluble
19,MINLKGITKSFQNGAESIQILHGIDVTLNQGEFTSIMGPSGSGKSTLMNIIGCLDKPTTGTYELAGQNISNMSKTELAHVRNKEIGFVFQNFMLLPRLSALQNVELPLIYAGVDKKERRERSLAALTKVGLADRATHLPNELSGGQKQRVAVARAIVNNPKFILADEPTGALDTKTSTQIMDLFYELNKQGSTIIMITHDREIGEAAARQIVIRDGNIVQDWRG,not soluble
